Experimental data from patent publication US20050049403A1 (CAMBRIDGE ANTIBODY TECHNOLOGY, published 2005).

T1: recombinant human TGFβ2 (human, UniProt P61812 303-414)
T1 sequence (looked up): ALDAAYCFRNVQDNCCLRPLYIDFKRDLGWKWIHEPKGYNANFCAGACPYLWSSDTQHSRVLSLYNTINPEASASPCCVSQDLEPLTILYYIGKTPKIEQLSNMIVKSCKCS


Assays:
recombinant human TGFβ1 [1] = target: T2, recombinant human TGFβ1 (human, UniProt P01137 279-390); assay: radioreceptor assay, inhibition of 125I-TGFβ1 binding to A549 cells; concentration of antibody combining sites
T2 construct: mature; also called TGFbeta1
T2 sequence (P01137 279-390 limits assumed): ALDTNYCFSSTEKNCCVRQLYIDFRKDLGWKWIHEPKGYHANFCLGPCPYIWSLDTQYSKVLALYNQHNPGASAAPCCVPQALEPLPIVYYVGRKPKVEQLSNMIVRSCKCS
Procedure: (§1) Cells are seeded at 1-2×10^5 cells/ml/well into the wells of 24-well cluster plates and grown for 24 h in serum-free DMEM. Cell monlayers are washed twice with serum-free DMEM and 0.5 ml binding medium (DMEM/Hams F12 (Sigma D-6421) containing 0.1% (v/v) BSA added to each well.
(§2) Aliqouts of ¹²⁵I-TGFβ1 or TGFβ2 (70-90 TBq/mmol; Amersham International) at 20 pM are preincubated with antibody in binding medium at room temperature for 1 h. Duplicate samples of 0.5 ml of TGFβ/antibody mixtures are then added to the cell monlayers and are incubated at 37° C. for 1-2 h. Control wells contain TGFβ only. Unbound TGFβ is removed by washing 4 times with Hank's balanced salt solution containing 0.1% BSA. Cells are solubilised in 0.8 ml 25 mM Tris HCl pH 7.5, 10% glycerol, 1% Triton X-100 at room temperature for 20 min. The contents of each well are removed and ¹²⁵I measured in a gamma counter.

recombinant human TGFβ1 [2] = target: T2, recombinant human TGFβ1; assay: BIACore, scFv
Procedure: (§3) The off-rates for binding to TGFβ1 or TGFβ2 of the single chain Fv fragments described in this example were determined as described by Karlsson et al (R. Karlsson et al, J. Immunol. Methods 145, 229-240, 1991). The results obtained are shown in Table 2, together with dissociation constants for those which have been determined.

recombinant human TGFβ2 [3] = target: T1, recombinant human TGFβ2; assay: cell-based or functional assay
recombinant human TGFβ2 [4] = target: T1, recombinant human TGFβ2; assay: BIACore, scFv injected over immobilised antigen
Procedure: (§4) The antibodies were also shown to be specific for TGFβ2 compared to TGFβ1 by relative binding to theBIACore sensor chips coated with the appropriate antigen. TGFβ1 and TGFβ2 were immobilised by amine coupling to Biosensor CM5 sensorchips (Pharmacia) according to the manufacturers instructions. […] The amount of TGFβ bound was assessed as the total increase in resonance units (RUs) over this period.

recombinant human TGFβ1 [5] = target: T2, recombinant human TGFβ1; assay: BIACore, scFv injected over immobilised antigen
Procedure: as §4

recombinant human TGFβ2 [6] = target: T1, recombinant human TGFβ2; assay: radioreceptor assay, inhibition of 125I-TGFβ2 binding to A549 cells; concentration of antibody combining sites
Procedure: as §1, §2

recombinant human TGFβ2 [7] = target: T1, recombinant human TGFβ2; assay: BIACore, scFv
Procedure: as §3

recombinant human TGFβ1 [8] = target: T2, recombinant human TGFβ1; assay: radioreceptor assay, inhibition of 125I-TGFβ1 binding to A549 cells, Example 9
recombinant human TGFβ2 [9] = target: T1, recombinant human TGFβ2; assay: BIAcore 2000, koff divided by kon
Procedure: (§5) To determine the kinetic parameters, a series of dilutions of the antibody samples was made in HBS from about 500 μg/ml down to less than 1 μg/ml, usually through doubling dilutions. After the antibody has been injected over the antigen surface, the surface is washed with HBS, then regenerated by stripping off the bound antibody with a pulse of 100 mM HCl. At the higher concentrations of antibody the antigen on the chip surface is saturated, and the off rate is determined on washing with buffer in the dissociation phase. For determination of the on-rate, lower concentrations of antibody are used, giving a linear binding phase in the sensorgram, allowing kₒₙ determination.
(§6) 6B1 IgG4 was purified from the GS/NS0 cell line of Example 10 as in Example 2. 6B1 single chain Fv was expressed intracellularly in E. coli, refolded in vitro (using the methodology of WO94/18227), and purified to give a homogeneous product. The values of kₒₙ and koff were determined for 6B1 IgG4 for binding to both TGFβ2 and TGFβ3, and for the single-chain Fv 6B1 for binding to TGFβ2. The dissociation constant was calculated by dividing koff by kₒₙ.

recombinant human TGFβ2 [10] = target: T1, recombinant human TGFβ2; assay: BIAcore 2000, antigen immobilised, antibody as analyte
Procedure: The immobilisation of ligand is automated by the BIACore 2000 machine, and all steps are carried out in the autosampler or in the flowcell, on the dextran surface of the chip. The buffer used throughout the immobilisation procedure, and the analysis of samples is Hepes-buffered saline (HBS) with a surfactant (Pharmacia Biosensor). The chips (Pharmacia, CM5), have dextran coating on a thin layer of gold. NHS at 100 mM and EDC at 400 mM are mixed by the autosampler, and then a fixed volume is injected over the flowcell surface. This is followed by an injection of antigen in a suitable buffer. In the case of TGFβ, a surface of the correct density was given by using 25-30 μg/ml solution of TGFβ2 (AMS) OR TGFβ3 (R & D systems) in 10 mM acetate. After injection of the ligand, the chip is blocked using 1M ethanolamine. The total amount of TGFβ bound was assessed from the total increase in resonance units over this period.
as §5, §6

Binder | IC50 (recombinant human TGFβ1 [1]) [nM] | koff (recombinant human TGFβ1 [2]) [s⁻¹] | I.C.50 in TF1 assay (neutralisation of TGFβ2 inhibition of TF1 cell proliferation) (recombinant human TGFβ2 [3]) [nM] | increase in resonance units (recombinant human TGFβ2 [4]) [RU] | increase in resonance units (recombinant human TGFβ1 [5]) [RU] | IC50 (recombinant human TGFβ2 [6]) [nM] | koff (recombinant human TGFβ2 [7]) [s⁻¹] | other results
31G9 scFv (scFv, VH-linker-VL in pCANTAB6; also called 31G9 single chain Fv) scFv: QVQLVQSGGGVVQPGRSLRLSCAASGFTFSSYGMHWVRQAPGKGLEWVAVISYDGSIKYYADSVKGRFTISRDNSKNTLYLQMNSLRAEDTAVYYCARTGEYSGYDTSGVELWGQGTTVTVSSGGGGSGGGGSGGGGSDIVMTQSPSTLSASVGDRVTITCRASQGISSWLAWYQQKPGRAPKVLIYKASTLESGVPSRFSGSGSGTDFTLTISSLQPEDFATYYCQQSYSTPWTFGQGTKLEIKR | 30 | 0.0009 | – | – | – | – | – | Kd (recombinant human TGFβ1 [2]): 12 nM
CS39 scFv (scFv) scFv: QVQLVQSGGGVVQPGRSLRLSCAASGFTFSSYGMHWVRQAPGKGLEWVAVISYDGSIKYYADSVKGRFTISRDNSKNTLYLQMNSLRAEDTAVYYCARTGEYSGYDTSGVELWGQGTTVTVSSGGGGSGGGGSGGGGSDVVMTQSPSSLSASVGDRVTITCRASQGISNYLAWYQQKPGKAPKLLIYKASTLESGVPSRFSGSGSGTEFTLTISSLQPEDFATYYCQQSYSTPRTFGQGTKVDIKR | ~60 | 0.0017 | – | – | – | – | – | –
6H1 scFv (scFv) scFv: EVQLVESGGGVVQPGRSLRLSCAASGFTFSSYGMHWVRQAPGKGLEWVAVIWYDGSNKYYADSVKGRFTISRDNSKNTLYLQMDSLRAEDTAVYYCGRTLESSLWGQGTLVTVSSGGGGSGGGGSGGGGSDVVMTQSPSSLSASVGDRVTITCRASQGISNYLAWYQQKPGKAPKLLIYKASTLESGVPSRFSGSGSGTEFTLTISSLQPEDFATYYCQQSYSTPRTFGQGTKVDIKR | – | – | 1.5 | 77 | 686 | 0.22 | 0.0011 | –
7A3 scFv (scFv, Light chain shuffle of 1-B2) scFv: QVQLVESGGGVVQPGRSLRLSCAASGFTFSSYGMHWVRQAPGKGLEWVAVISYDGSNKYYADSVKGRFTISRDNSKNTLYLQMNSLRAEDTAVYYCAKTGEYSGYDSSGVDVWGKGTTVTVSSGGGGSGGGGSGGGGSDIVMTQSPDSLAVSLGERATINCKSSQSLLYSYNKMNYLAWYQQKPGQPPKLLINWASTRESGVPDRFSGSGSGTDFTLTISSLQAEDVAVYYCQQYYATPLTFGHGTKVEIKR | > 100 | – | – | – | – | – | – | –
CS32 scFv (scFv) scFv: QVQLVQSGGGVVQPGRSLRLSCAASGFTFSSYGMHWVRQAPGKGLEWVAVISYDGSIKYYADSVKGRFTISRDNSKNTLYLQMNSLRAEDTAVYYCARTGEYSGYDTSGVELWGQGTTVTVSSGGGGSGGGGSGGGGSDIVMTQSPDSLAVSLGERATINCKSSQSLLYSYNKMNYLAWYQQKPGQPPKLLINWASTRESGVPDRFSGSGSGTDFTLTISSLQAEDVAVYYCQQYYATPLTFGHGTKVEIKR | 4.5 | 0.0012 | – | – | – | – | – | IC50 (recombinant human TGFβ1 [8]): 40 nM
CS37 scFv (scFv) scFv: QVQLVQSGGGVVQPGRSLRLSCAASGFTFSSYGMHWVRQAPGKGLEWVAVISYDGSIKYYADSVKGRFTISRDNSKNTLYLQMNSLRAEDTAVYYCARTGEYSGYDTSGVELWGQGTTVTVSSGGGGSGGGGSGGGGSEIVLTQSPSSLSASVGDRVTITCRASQGIGDDLGWYQQKPGKAPILLIYGTSTLQSGVPSRFSGSGSGTDFTLTINSLQPEDFATYYCLQDSNYPLTFGGGTRLEIKR | – | – | – | – | – | – | – | IC50 (recombinant human TGFβ1 [8]): ~8 nM
6A5 scFv (scFv, also called 6A5 single chain Fv) scFv: EVQLVESGGGVVQPGRSLRLSCAASGFTFSSYGMHWVRQAPGKGLEWVAVIWYDGSNKYYADSVKGRFTISRDNSKNTLYLQMDSLRAEDTAVYYCGRTLESSLWGQGTLVTVSSGGGGSGGGGSGGGGSSSELTQDPAVSVALGQTVRITCQGDSLRSYYASWYQQKPGQAPVLVIYGKNNRPSGIPDRFAGSNSGNTASLTITGAQAEDEADYYCSSRDSSGNHVVFGGGTKLTVLG | – | – | 8 | 71 | 480 | 1.5 | 0.00014 | Kd (recombinant human TGFβ2 [7]): 0.7 nM
14F12 scFv (scFv) scFv: EIQLVESGGGVVQPGRSLRLSCAASGFTFSSYAMHWVRQAPAKGLEWVAVISYDGSNKYYADSVKGRFTISRDNSKNTLYLQMNSLRAEDTAVYYCARAGLETTWGQGTLVTVSSSGGGGGSGGGGSGGGGSSSELTQDPAVSVALGQTVRITCQGDSLRNYYANWYQQKPGQAPVLVIYGKNNRPSGIPDRFSGSSSGNTASLTITGARAEDEGVYYCNSRDSSGAVFGGGTKLTVLG | – | – | 90 | 115 | 616 | 3 | 0.0021 | –
11E6 IgG (antibody, V domains shown, its construction as a whole antibody is not described) VH: EIQLVESGGGVVQPGRSLRLSCAASGFTFSSYAMHWVRQAPAKGLEWVAVISYDGSNKYYADSVKGRFTISRDNSKNTLYLQMNSLRAEDTAVYYCARAGLETTWGQGTLVTVSS VL: EVVLTQSPSSLSASVGDRVTITCRASQGIGDDLGWYQQKPGKAPILLIYGTSTLQSGVPSRFSGSGSGTDFTLTINSLQPEDFATYYCLQDSNYPLTFGGGTRLEIKR | – | – | – | – | – | 1.6 | – | –
6B1 scFv (scFv, also called 6B1 single chain Fv) scFv: EVQLVESGGGVVQPGRSLRLSCAASGFTFSSYGMHWVRQAPGKGLEWVAVIWYDGSNKYYADSVKGRFTISRDNSKNTLYLQMDSLRAEDTAVYYCGRTLESSLWGQGTLVTVSSGGGGSGGGGSGGGGSSSELTQDPAVSVALGQTVRITCQGDSLRSYYASWYQQKPGQAPVLVIYGKNNRPSGIPDRFSGSSSGNTASLTITGAQAEDEADYYCNSRDSSSTHRGVFGGGTKLTVLG | – | – | 15 | – | – | 0.3 | 0.0006 | Kd (recombinant human TGFβ2 [9]): 2.32 nM; koff (recombinant human TGFβ2 [10]): 0.000668 s⁻¹; kon (recombinant human TGFβ2 [10]): 287000 M⁻¹ s⁻¹
